Test results: the nanobody polyreactivity screen of Harvey et al. (2022)

Test: yeast display, Sf9 membrane polyspecificity reagent, FACS + sequencing; frameworks hold sequencing errors
Outline: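 Sorting gates, low and high (top ~1%), were placed on anti-HA fluorescence to track expression and on streptavidin fluorescence to track reagent binding. A clone's polyreactivity label is taken from the gate it came out of. The reagent was 10% biotinylated, detergent-solubilized Sf9 membrane, applied for 1 hour at 4 °C to galactose-induced yeast display cells.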

Row | Sequence | polyreactivity (PSR sort gate)
1 | QVQLVESGGGLVQAGGSLRLSCAASGRTIWYYAMGWYRQAPGKERELVAAITNRGGSTSYADSVKVRFTISRDNVKNTVYLQMNSLKPEDTAVYYCAKENYYGGGFDYWGQGTQVTVSS | high polyreactivity
2 | QVQLVESGGGLVQAGGSLRLSCAASGRTIYQYAMGGYRQATGKARELDAAISRGGSTNFADSLKGRFTISRDNAKNTVYLQMNSLKPEDTAVYYCASWYKFLSLKRLYERDYWGQGTQVTVSS | high polyreactivity
3 | QVQLVESGGGLVQAGGSLRLSCAASGRTIYQYAMGWYRQAPGKERELVAAITDNGGRTYYADSVKGRFTISCDNAKNTVYLQMNSLKPEDTAVYYCAAEIWTYSYYVVDNGPYDYWGQGTQVTVSS | low polyreactivity
4 | QVQLVESGGGLVQAGGSLRLSCAASGRTIYYYAMGGYRQAPGKEREFVAAISWHGGSTYYADSVKGRFTISRDNAKNTVYLQMNSLKPEDTAVYYCAAERYDRVGFDYWGQGTQVTVSS | low polyreactivity
5 | QVQLVESGGGLVQAGGSLRLSCAASGRTLAFNAMGWYRQAPGKERELVAVIRNGTSTNYADSVKGRFTISRDNAKNTVYLQMNSLKPEDTAVYYCNVPYYLPSYLSGYDYWGQGTQVTVSS | low polyreactivity
6 | QVQLVESGGGLVQAGGSLRLSCAASGRTLAPYAMGWYRQAPGKERELVAISTIGGSTYYADSVKGRFTISRDNAKNTVYLQMNSLKPEETAVYYGAADGNSTGVYLAGGEGFAYDYWGQVTQVTVSS | low polyreactivity
7 | QVQLVESGGGLVQAGGSLRLSCAASGRTLASNAMGWYRQAPGKEREFVAAITDSGGRTYYADSVKGRFTISRDNAKNTVYLQMNSLKPEDTAVYYCNAYQYYERYDTYLFRYDYWGQGTQVTVSS | low polyreactivity
8 | QVQLVESGGGLVQAGGSLRLSCAASGRTLATYAMGWYRQAPGKERELVADISWRGGTTYYADSVKGRFTISRDNAKNTVYLQMNSLKPEDTAVYYCAAVRKQGSGFDYWGQGTQVTLSS | high polyreactivity
9 | QVQLVESGGGLVQAGGSLRLSCAASGRTLDKYAIGWYRQAPGKERELVAAITSGGTTKYADSVKGRFTISRDNAKNTVYLQMNSLKPEVTAVYYCAKDLEGNPHFSYGIDFDYWGQGTQVTVSS | low polyreactivity
10 | QVQLVESGGGLVQAGGSLRLSCAASGRTLDKYAMGWYRQAPGKERELVAAITSGGSTNYADSVKGRFTISRDNAKNTVYLQMNSLKPEDTAVYYCAKDLQGNPHFSYGIDFDYWGQGTQVTVSS | low polyreactivity
11 | QVQLVESGGGLVQAGGSLRLSCAASGRTLEDYVMGWYRQAPGKERELVAAISWSGVSTYYADSVKGRFTISRDNEKNTVYLQMNSLKPEDTAVYYCAKDSTADELTGFDYWGQGTQVNVSS | low polyreactivity
12 | QVQLVESGGGLVQAGGSLRLSCAASGRTLFHYAMGWYRQAPGKERELVAAIRNSDGSTYYADSVKGRFTISRDNAKNTVYLQMNSLKPEDTAVYYCAAVRRYHSYPDGGYWGQGTQVTVSS | high polyreactivity
13 | QVQLVESGGGLVQAGGSLRLSCAASGRTLGGYAMGWYIQATGKERELVAAITRRGGSTYYADSVKGRFTISRDNAKNTVYLQMNSLKPEDTAVYYCAARWYARSLTRFNYWGQGTQVTVSS | high polyreactivity
14 | QVQLVESGGGLVQAGGSLRLSCAASGRTLGGYTMGWYRQAPGKEREVVAGISFRGDSTYYADSVKGRFTLSRANAKNTVYLQMNSLKPEDTAVYYCNARGTPWRYGGDYWGQGTQVTVSS | low polyreactivity
15 | QVQLVESGGGLVQAGGSLRLSCAASGRTLGRYAMGWYRQAPGKERELVAAMNVGGGTTHYADSVKGRFTISRDNAKNTVYLQMNSLKPEDTAVYYCAAYRYTYGDRHAYDYWGQGTQVTVSS | low polyreactivity
16 | QVQLVESGGGLVQAGGSLRLSCAASGRTLGYYAMGWYRQAPGTERELVAAISGSGGITYYADSVKGRFTISRDNAKNTVYLQMNSLKPEDTAVYFCNVDPTAKWFNYDSWGQGTQVTVSS | low polyreactivity
17 | QVQLVESGGGLVQAGGSLRLSCAASGRTLHAYTMGWYRQAPGSERELVAAITRGGGNTYYADSVKGRFTISRDNAKNTVYLQLNSLKPEDTAVYYCNAAVSGYLSYEYDYWGQGTQVTVSS | low polyreactivity
18 | QVQLVESGGGLVQAGGSLRLSCAASGRTLHYYAMGWYRQAPGKERELVAAISARVGRTYYADSVKGRFTISRDNAKNTVYLQMNSLKPEDTEVYYCAAAGYITRYDRYDYWGQGTQVTVSS | high polyreactivity
19 | QVQLVESGGGLVQAGGSLRLSCAASGRTLIAYAMGWYRQAHGKEREFVAAIRADDGRTYYADSVKGRFTISRDNAKNTVYFQMNSLKPEDTAVYYCDTKADKRYRFGYWGQGTQVTVSS | high polyreactivity
20 | QVQLVESGGGLVQAGGSLRLSCAASGRTLIYNVMGWYRQAPGKERELVAAITNGGSTYYADSVKGRFTISRDNAKNTVYLQMNSLKPEDTAVYYCATRYGKTYWGQGNQVTVSS | high polyreactivity
21 | QVQLVESGGGLVQAGGSLRLSCAASGRTLKYNAKGGNRQAPGKARELVAALTNSGTRTYYADSVKGRFTISRDNAKNTVYLQMNSQKPEDTAVYYCAKDSYPYLRVGHLKYRVKTYGHWGQGTQVTVSS | high polyreactivity
22 | QVQLVESGGGLVQAGGSLRLSCAASGRTLKYYAMGWYRQAPGKERELVAAITWSGTRTFYADSVKGRFTISRDNAKNTVYLQMNSLKPEDTAVYYCARTYYGGAGYEYWGQVTQVTVSS | high polyreactivity

Row | Sequence | polyreactivity (PSR sort gate)
23 | QVQLVESGGGLVQAGGSLRLSCAASGRTLNNNAMGWYRQAPGKERELVAAISRSGGRTYYADSVKGRFTISRDNAKNTVYLQMNSLKPEDTAVYYCAAVNIRFGYADRFYYVYRGDEWGQGTQVTVSS | high polyreactivity
24 | QVQLVESGGGLVQAGGSLRLSCAASGRTLNWYAMGWYRQAPGKERELVAVINLSGGRTYYADSVKGRFTISRDNAKNTVYLQMNSLKPEDTAVYYCNAPSVWERSYEKYDYWGQATQVTVSS | low polyreactivity
25 | QVQLVESGGGLVQAGGSLRLSCAASGRTLPKYVLGWYRQSPGKERELVAAISSSGDSTYYADSVNGRFTISRDNAKNTVYLQMNILKPEDTAVYYCDKYDRNTYGYWGQGTQVTVST | low polyreactivity
26 | QVQLVESGGGLVQAGGSLRLSCAASGRTLPSYSMGCYREAPGKERELFAAITGSGGRTYYADSVKGRFTISRDNAKNSVYLQMNSLKPEDTAVYYCNAYSRTWYARSYYYWGQGTQVTVSS | high polyreactivity
27 | QVQLVESGGGLVQAGGSLRLSCAASGRTLQQYVMGWYRQAPGQERELVAAITRGGRTNYADSVKGRFTISRDNAKNTVYLQMNSLNPEDTAVYYCNTRYPSRLVAWLDYWGQGTQVTVSS | low polyreactivity
28 | QVQLVESGGGLVQAGGSLRLSCAASGRTLRGYAMGWYRQAPGKERELVAAISKGGGSTFYADSVKGRFTISRDNAKNTVYLQMNSLKPEDTAVYYCAADYYSYTYYLDFDYWGQGTQVTVSS | high polyreactivity
29 | QVQLVESGGGLVQAGGSLRLSCAASGRTLRGYAMGWYRQAPGKERELVAAITWSGGSTYYADSVKGRFTISRDNAKNTVYLQMNSLKPEDTAVYYCNARSYPDLYDYWGQGTQVTVSS | low polyreactivity
30 | QVQLVESGGGLVQAGGSLRLSCAASGRTLRKYAMGWYRQAPGKERELVAGFTGSAGSTYYADSVKGRFTISRDNAKNTVYLQMNSLKPEDTAVYYCAKSGLRYGFDYWGQGTQVTVSS | high polyreactivity
31 | QVQLVESGGGLVQAGGSLRLSCAASGRTLRRYAMGWYRQAPGKERELVAAISRSGSSTYADSVKGRFTISRDNAKNTVSLQMNSLKPEDTAVYYCNAYQPRYGYWGQGTQVTVSS | high polyreactivity
32 | QVQLVESGGGLVQAGGSLRLSCAASGRTLRSNAMGWYRQAPGKERELVAAISSNGGSTYYADSVKGRFTISRDNAKNTVYLQMNSLKPEDTAVYYCAALSYYYSDRMDYWGQGTQVSVSS | low polyreactivity
33 | QVQLVESGGGLVQAGGSLRLSCAASGRTLRTYAMGWSRQAPGKERELVAAITSSGGRTYYADSVKGRFTISRDNAKNTVYLQMNSLKPEDTAVYYCAAARYYYGGDYWGQGTQVTVSS | high polyreactivity
34 | QVQLVESGGGLVQAGGSLRLSCAASGRTLRTYGMGWYRQAPGKERELVARITIGGRTYYADSVKGRFTISRDNAKNTVYLQMNSLKPEDTAVYYCAARYAGGTSRILYGYWGQGTQVTVSS | high polyreactivity
35 | QVQLVESGGGLVQAGGSLRLSCAASGRTLRWYAMGWYRQAPGKERELVAAINWSGTSTYYADSVKGRFTISRDNAKNTVYLQMNSLKPEDTAVYYCAKRVTWNYDWGQGTQVTVSS | high polyreactivity
36 | QVQLVESGGGLVQAGGSLRLSCAASGRTLRYNTMGWYRQAPGKERELVAAITRSGTGTNYADSVKGRFTISRDNAKNTVYLQMNSLKPEDTAVYYCAAAPFPRRRYDYWGQGTQVTVSS | high polyreactivity
37 | QVQLVESGGGLVQAGGSLRLSCAASGRTLRYYDMGWYRQEPGKEREIVAAISWSGVSTYYADSVKGRFTISRDNAKNTVYLQMNSMQPEDTAVYYCAVGYVLTGVFEARFDYWGQGTLVTVSS | high polyreactivity
38 | QVQLVESGGGLVQAGGSLRLSCAASGRTLSNYAMGWSRQAPGKETELVAAISSSGSTNYADSVKGRFTISRDNAKNTVYLQMNSLKPEDTAVYYCAAESWFLRWYRYDYWGQGTQVSVSS | low polyreactivity
39 | QVQLVESGGGLVQAGGSLRLSCAASGRTLSRYTMGWYRQAPGKERELVAAISTSGSTYYADSVKGRFTISRDNAKNTVYLQMNSLKPEDTAVYYCNAVRRYLQYATGYDYWGQGTQVTVSS | high polyreactivity
40 | QVQLVESGGGLVQAGGSLRLSCAASGRTLSVYAMGWYRQAPGKERELVAAITWRGGSTYYADSVKGRFTISRDNAKNTVYLQMNSLKPEDTAVYYCAAEDYTYNGGGYEYWGQGTQVTVSS | low polyreactivity
41 | QVQLVESGGGLVQAGGSLRLSCAASGRTLSVYAMGWYSQAPGKEMEFVAAISFSGGSTYYADSVKGRFTISRDNAKNTVYLQMNSQKPEDTAVYYCATAYPEFLSTTVGLLYLDDYWGQGTQVTVSS | low polyreactivity
42 | QVQLVESGGGLVQAGGSLRLSCAASGRTLSYYAMGWYRQAPGKEREFVAAINWSGGSTYYADSVKGRFTISRDNAKNTVYLQMISLKPEDTAVYYCAAYRPYSSSEGDYWGQGTQVTVSS | high polyreactivity
43 | QVQLVESGGGLVQAGGSLRLSCAASGRTLTRNAMAWYRQAPRTERELVAVITSSGSRTYYADSVKGRFTISRDNAKNTVYLQMNSLKPEDTAVYYCAAKVDASDVRRSRAGRYDYWGQGTQVTVSS | high polyreactivity
